From the nanobody polyreactivity screen of Harvey et al. (2022)

Test: yeast display, Sf9 membrane polyspecificity reagent, FACS + sequencing; frameworks hold sequencing errors
Method in brief: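 Nanobodies from a synthetic yeast display library (Saccharomyces cerevisiae BJ5465), induced 36–48 hours with galactose, were stained 1 hour at 4 °C with 10% biotinylated, detergent-solubilized Sf9 membrane reagent, enriched on streptavidin microbeads, then FACS-sorted. Anti-HA (expression) and streptavidin (reagent binding) fluorescence set low and high (top ~1%) gates. Polyreactivity labels come from the gate of origin. Genes were colony-PCR amplified, MiSeq 2 × 250 sequenced and filtered by CDR length.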

Row | Sequence | polyreactivity (PSR sort gate)
1 | QVQLVESGGGIVQAGGSLRLSCAASGFTFPVYAMGWYRQAPGKEREFVAAITYIGGSTYADSVKGRFTISRDNAKNTVYLQMNSLKPEDTAVYYCAADIITEYWADYLGYLEYDYWGQGTQVTVSS | low polyreactivity
2 | QVQLVESGAGLVQAGGSLRVSCAASGSIFSYYTMGWYRQPPGKERELVAAITYRGGSTYYADSVKGRFTISRDNAKNTVYLQRNSLKPEDTAVYYCAARTRNGAGYYWGQGTQVTVSS | high polyreactivity
3 | QVQLVESGGGLVQAGGSLRLSCAASGIIFARYAMGWYRQAPGKERELVASINWTGGNTYADSVKGRFTISRDNAKNTVYLQMNSLKPEDTAVYYCARDFCPGSSDPKASISFDHWGQGTQVTVSS | low polyreactivity
4 | QVQLVESGGGLVQAGGSLRLSCAASGFIFYRYAMGWYRQAPGKERELVAAINWSGGGTYYADSVKGRFTISRDNAKNTVYLQMNSLKPEDTAVYYCAAGRSFRGSYWYEYWGQGTQVTVSS | high polyreactivity
5 | QVQLVESAGGLVQAGGSLRLSCASSGFTFKANAMGWYRQAPGKERELVAAISRRGSSTYYADSVKGRFTISRDNAKNTVYLQMNSLKPEDTAVYYCNTKPRAGRTKLGYWGQGTQVTVSS | high polyreactivity
6 | QVQLVESGGGLVQAGGSLRLSCAASGFTFYANAMGWYRQAPGKERELVAAIDQSGTSTNYADSVKGRFTISRDNAKNTVYLQMNSLKPEDTAVYYCAADSSFYYYPLILFWGDYWGQGTQVTVSS | low polyreactivity
7 | QVQLVESGGGLVQAGGSLRLSCAASGLTFSYYTMGCYRQAPGKERELVARISNRGTNTYYADSVKGRFTISRDNAKNTVYLQMNSLKPEDTAVYYCAKYYYTSIVGYDSWGQGTQVTVSS | low polyreactivity
8 | QVQLVESGGGLVQAGGSLRISCAASGRIFDTYVMGWYRQAPGKERELVAAISGSGGSTYYADSVKGRFTISRDNAKNTVYLQMNSLKPEDTAVYYCAAARRYYAYRYDYWGQGTQVTVSS | high polyreactivity
9 | QVQLVESGGGLVQAGGSLRLSCAASGSILGTYAMGWYRQAPGKERELVAAITLSTDGTYYADSVKGRFTISRDNAKNTVYLQMNSLKPEDTAVDYCAAPWNWRWVTQWGYYVRADYFWGQGTQVTVSS | low polyreactivity
10 | QVQLVESGGGLVQAGGSLRLSCAASGRTFQVYAMGWYRQAPGKERELVAAISSSGGITYYADSVKGRFTISRDNAKNTVYLQMNSLKPEDTAVYYCNTLYVSSNEYWGQGTQVTVSS | high polyreactivity
11 | QVQLVESGGGLVQAGGSLRLSCAASGRTFNYYAMGWYRQAPGKERELVAAISTSGGSTYYADSVKGRFTISRDNAKNTVYLQMNSLKPEDTAVYYCNAVYRVWYAEWSTVGSPHDYWGQGTQVTVSS | low polyreactivity
12 | QVPLVESGGGLVQAGGSLRLSCAASGYIFEKYAMGWYRHAPGKERELVAAITVTGASTYYADSVKGRFTSSRDNAKNTVYLQMNSLKPEDTAVYYGAAKTLSVGYVDPDYGRDYWGQGTQLTVSS | low polyreactivity
13 | QVQLVESGGGFVQAGGSLRVSCAASGSIFGSYAMGWYRQAPGKERELVADISSGGSTNYADSVKGRFTISRDNAKNTVYLQMNSLKPEDTAVYYCNADDPAGYLYWWGSWLESDYWGQGTQGTVSS | low polyreactivity
14 | QVQLVESGGGLVQAGGSLRLSCAASGLTFAPYVMGWYRQAPGKERELVPAISRSGGSTYYADSVKGRFTISRDNAKNTVYLQMNSLKPEDTAVYYCNRDVSLSAFDYWGQGTQVTVSS | high polyreactivity
15 | QVQLVESGGGLVQAGGSLRLSCAASGITFPYYAMGWYRQAPGKERELVAAITIRSGRTYYADSVKGRFTISRDNAMNTVYLQMNSLKPEDTAVYYCAARLSNTYGYWGQGTQVTVSS | high polyreactivity
16 | HVQLVESGGGLVQAGGSLRLSCAASGRTFFRYVMGWYRQAPGKERELVAAISRSGGSTYYADSVKGRFTISRDNAKNTFYLQMNSLKPEDTAVYYCAASAGPRASYYYWGQGTQVTVSS | high polyreactivity

Row | Sequence | polyreactivity (PSR sort gate)
17 | QVQLVESGGGLVQAGGSLRLSCAASGSTISKYAMGWYRQAPGKERYLVAAISSRGGSTYYADSVKGRFTISRDNAKNTVYLQMNSLTPEDTAVYYCNATPYPGGNGRWRFWKSYRYWGQGTQVTVSS | high polyreactivity
18 | QVQLVESGGCLVQAGGSLRLICASSGFTFRAYAMGWYIKAPGKEREFVAAISRRGGSTSYADSVKGRFTISRDNAKNTVYLQMNSLKPEDTAVYYCAATYQILTTSAHDSWGQGTQVTVSS | high polyreactivity
19 | QVQLVESGGGLVQAGGSLRLSCAASGSIFVNNAMGWYRQAPGKERELVAAITCSTGSTYYADSVKGRFTISRDNAKNTVYLQMNSLKPEDTAVYYCAATSYTATWRYYYWGQGTQVTVSS | high polyreactivity
20 | QVQLVESGGCLVQAGGSLRLSCAASGSTFVHNAMGWYRQAPGKERELVAAISESGGGTYYADSVKGRFTISRDNAKNTVYLQMNSLKPEDTAVYYCAAPPAGENWRDGGGYWGQGTQVTVSS | low polyreactivity
21 | QVQLVESGGGLVQAGGSLRLSCAASGSTFAYYAMGWYRQAPGKERELVAAITIDGRTSYADSVKGRFTISRDNAKNTVYLQMNSLKAEDTAVYYCAADSSAWLYDYWGQGTQVTVSS | low polyreactivity
22 | QVQLVESGGGLVQAGGSLRLSCAASGSIFRNYAMGWSRQAPGKERELVAAITSIGGGTYYADSVKGRFTISRDNAKNTVYLQMNSLKPEDTADYYCAADYGFYPYDYVYWGQGTQVTVSS | low polyreactivity
23 | QVQLVESGGGLVQAGGSLRLSCAASGSTFAFYAMGWYRQAPGKERELVAAINLGGGSTYYADSVKGRFTISRDNAKNTVYLQMNSLKPEDTAVYYCAADFWTFSWPVFDTYVYWGQGTQVTVSS | low polyreactivity
24 | QVQLVESGGGLVQAGGSLRLSCAASGNIFSDNTMGWYRQAPGKERELVAVITSGTSTSYADSVKGRFTISRDNAKNTEYFQMNSLKPEDTAVSYAARTGQYKTYGEYDYWGQGTQVTVSS | low polyreactivity
25 | QVQLVESGGGLVQAGGSLRLSCAASGSTFDSYARVWYRQAPGKETELVARISIVGSTNYADSVKGRFTISRANAKNTVYLQMNCLKPDDTAVYYCAADRDWQYSFRHSVYGYDYDYWGQGTLVTVSS | low polyreactivity
26 | QDQLVESGGGLVQAGGSLRLSCAATGFTFYSYAMGWYRQAPGKERELVAGISRSGGSTYYADSVKGRFTISRDNGKNTVYLQMKSLKPVDTAVYYCNVGLRKKIQNSKYDYWGQGTQVTVSS | high polyreactivity
27 | QVQLVESGGGLVQAGGSLRLSCAASGRIFRANAMGWSRQAPGKERELVAAISTSGGSTTYADSVKGRFTISRDNSKNTVYLQMNSLKPEDTAVYYCAVDSWLKWRDKWVIRHDYWGQGTQVTVSS | high polyreactivity
28 | QVQLVESGGGFVQAGGSLRLSCAASGRIFLTNAMGWYRQAPGKERELVAAITSGGSTYYADSVKGRFTISRDNAKNTVYLQMNSLKPEDPAVYYCNADTDRYSPYEYDFWGQGTQVTVSS | low polyreactivity
29 | QVQLVESGGGLVQAGGSLRLSCAASGFTFRSNVMGWSRQAPGKERELVAGITQRGGRTYYADSEKGRFTISRDNAKNTVYLQMNSLKPEDTAVYYCAADRSEYDYWGQGTQVTVSS | high polyreactivity
30 | QVQLQESGGGMVQAGGSLRLSCAASGYISWADYMVWYRQAPGKERELVAGIGYGSTTYYADSVKGRFTISRANAKNTAYLQMNSLKPEDTAVYYCAVGWYRDTAYKYWGQGTQVTVSS | low polyreactivity
31 | QVQLVESGGGLVQAGGSLRLSCASSGFTFAYYAMGWYRQAPGKERELVAAISSRGGSTYADSVKGRFTISRDNAKNTVYLQMNSLKPEYTAVYYCNAVVPRSRYFSWTYDYWGQGTQVTVSS | high polyreactivity
